Results published in patent US20090269346A1 (RAPTOR PHARMACEUTICAL, published 2009).

Legend:
[1] = molecular target: T1, LRP1 CR3-5 (human); experiment: solid-phase assay, coated CR protein, anti-RAP, OD450; apparent Kd repeated from Table 1; unit inferred, nM taken from paragraph 284
T1 construct: range 852-973; Amplified from human cDNA; also called L1 CR3-5

[2] = molecular target: T2, LRP2 CR89 V1047D (human, UniProt P98164 1022-1105); experiment: solid-phase binding assay: CR protein coated on the plate, ligand titrated, anti-RAP polyclonal and HRP secondary, OD 450 nm
T2 construct: also called YDWR
T2 chain: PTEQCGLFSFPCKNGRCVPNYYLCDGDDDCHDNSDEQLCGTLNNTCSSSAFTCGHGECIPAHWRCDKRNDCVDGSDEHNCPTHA
Procedure: (§1) Solid phase binding assays-Purified, refolded CR protein (1 μg) was bound to Nunc Maxisorp™ 96-well plates in TBS pH 8 supplemented with 5 mM CaCl₂ (TBSC) overnight at 4° C. Wells were washed with TBSC and then blocked with TBSC containing 2% bovine serum albumin (BSA). RAP ligands were then incubated with the immobilized receptor at a range of concentrations for 2 hours in the above blocking buffer supplemented with 0.05% Tween-20 at room temperature. Control wells contained no added ligand. As an additional control, to determine whether the absence of calcium affected binding, 10 mM EGTA was included in the incubation medium for some samples. Wells were washed with TBSTC and bound ligands detected with polyclonal anti-RAP (BP41/42, 1:1,000, BioMarin). Excess primary antibody was removed and wells washed before incubation with the secondary antibody, HRP-conjugated goat anti rabbit IgG (Bio-Rad). After washing, TMB substrate solutions (Bio-Rad) were added to detect HRP. Color development was stopped with 1N HCl. Absorption at 450 nm was measured with a microplate spectrophotometer (Molecular Devices). Data were plotted and Kd values derived by non-linear regression with the assumption of single-site binding (GraphPad Prism).
(§2) One premise of this work was that amino acids at A, C, A′ and C′ within the calcium-binding loops of a CR pair were key determinants of binding affinity for RAP and would be similarly important for binding of RAP variants. To test this idea, we prepared mutants of LRP2 CR89 in which the native, non-canonical residues at these positions were sequentially substituted with the non-native, canonical residues. As defined above, the A, C, A′, C′ string for LRP2 CR89 is YVWR. Mutants included LRP2 CR89 Y1042W (WVWR), LRP2 CR89 V1047D (YDWR), LRP2 CR89 R1088D (YVWD), LRP2 CR89 V1047D R1088D (YDWD), LRP2 CR89 Y1042W V1047D R1088D (WDWD), LRP2 CR89 Y1042W V1047D (WDWR), LRP2 CR89 Y1042W R1088D (WVWD). Binding to both RAP d3 and RAPv2A d3 were measured for each LRP2 CR89 mutant by solid-phase assay. Samples were tested in triplicate. OD values from uncoated wells, receptor-coated wells incubated with buffer alone, and uncoated wells incubated with the highest ligand concentration all gave similar values for all conditions tested.

[3] = molecular target: T3, LRP2 CR89 V1047D R1088D (human, UniProt P98164 1022-1105); experiment: as above
T3 construct: also called YDWD
T3 chain: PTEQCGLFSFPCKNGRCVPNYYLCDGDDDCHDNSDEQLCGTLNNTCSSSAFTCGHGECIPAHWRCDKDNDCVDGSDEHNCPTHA
Procedure: as §1, §2

[4] = molecular target: T4, LRP2 CR89 R1088D (human, UniProt P98164 1022-1105); experiment: as above
T4 construct: also called YVWD
Procedure: as §1, §2

[5] = molecular target: T5, LRP2 CR89 Y1042W (human, UniProt P98164 1022-1105); experiment: as above
T5 construct: also called WVWR
T5 chain: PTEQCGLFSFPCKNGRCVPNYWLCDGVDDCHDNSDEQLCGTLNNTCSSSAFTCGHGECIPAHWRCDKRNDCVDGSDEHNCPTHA
Procedure: as §1, §2

[6] = molecular target: T6, ST14 CR12 (human, UniProt Q9Y5Y6 452-524); experiment: solid-phase binding assay, ligand at 80 nM on coated CR proteins, blank-corrected absorbance
T6 construct: also called MAT CR12; Mat CR12
T6 sequence: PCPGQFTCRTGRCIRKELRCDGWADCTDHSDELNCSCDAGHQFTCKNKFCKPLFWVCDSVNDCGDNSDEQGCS
Procedure: as §1
(§3) Binding experiments were also carried out comparing the binding of RAP d3 and RAPv2A d3 to an array of CR pairs (FIG. 9), similar to the experiment depicted in FIG. 5. For these experiments, RAP d3 and RAPv2A d3 (or RAPv2 d3) were each incubated at 80 nM concentrations with LRP1 CR3-5, LRP6 CR12, LRP6 CR23, LRP6 CR1-3, LRP2 CR89, LRP2 CR2728, LRP2 CR3031, LRP2 CR3435, LRP2 CR34-36, VLDLR CR78, VLDLR CR6-8, MAT CR12, MAT CR23 and MAT CR34. Samples were tested twice, in duplicate, and values combined. Means and standard deviations were then calculated. Blank values obtained from wells incubated in the absence of ligand were used to correct absorbance data.

[7] = molecular target: T7, LRP2 CR2728 (UniProt P98164 3552-3631); experiment: as above
T7 construct: domain: CR27 and CR28; its making is not described
T7 sequence (looked up): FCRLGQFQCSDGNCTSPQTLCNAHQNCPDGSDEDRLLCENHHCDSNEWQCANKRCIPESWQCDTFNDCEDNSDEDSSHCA
Procedure: as §1, §3

[8] = molecular target: T8, LRP2 CR3031 (UniProt P98164 3677-3755); experiment: as above
T8 construct: domain: CR30 and CR31; its making is not described
T8 sequence (P98164 3677-3755): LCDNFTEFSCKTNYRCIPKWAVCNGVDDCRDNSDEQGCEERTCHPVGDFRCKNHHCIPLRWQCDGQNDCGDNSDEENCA
Procedure: as §1, §3

T1 sequence (Q07954 852-973): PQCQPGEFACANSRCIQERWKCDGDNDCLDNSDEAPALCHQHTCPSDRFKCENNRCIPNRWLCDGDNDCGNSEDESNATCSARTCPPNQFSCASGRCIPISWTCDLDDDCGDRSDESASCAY

Kd [1]: 16 nM
binding result [2]: no binding (tested: 100 nM)
binding result [3]: no binding (tested: 100 nM)
binding result [4]: no binding (tested: 100 nM)
binding result [5]: no binding (tested: 100 nM)
binding result [6]: no binding (tested: 80 nM)
binding result [7]: no binding (tested: 80 nM)
binding result [8]: no binding (tested: 80 nM)
B1: wild-type RAP d3 (ligand)
chain: LDRLRRVSHQGYSTEAEFEEPRVIDLWDLEQSANLTDKELEAFREELKHFEAKIEKHNHYQKQLEIAHEKLRHAESVGDGERVSRSREKHALLEGRTKELGYTVKKHLQDLSGRISRAR
notes: expressed in E. coli from pET30(+)a; not shown: vector-encoded N-terminal tags of pET30(+)a (hexahistidine and S-peptide, as stated for the CR constructs)
